Data from patent US20220242945A1 (SORRISO PHARMACEUTICALS, published 2022).
Residue numbers refer to the chain shown, from its start. In names and notes the source's numbering stands. Each block holds one binder with its values, some of them ahead of it.

Tests used:
recombinant human IL-23 [1] = molecular target: T1, recombinant human IL-23 (human, UniProt Q9NPF7 20-189; P29460 23-328); experiment: IL-23-IL-23R neutralisation ELISA (Evaluation Method A): ICVD titrated with recombinant human IL-23, binding to coated IL-23R-Fc
T1 construct: Heterodimer of p19 and p40; also called hIL-23; interleukin-23; not shown: single C-terminal 6xHis tag
T1 sequence 1: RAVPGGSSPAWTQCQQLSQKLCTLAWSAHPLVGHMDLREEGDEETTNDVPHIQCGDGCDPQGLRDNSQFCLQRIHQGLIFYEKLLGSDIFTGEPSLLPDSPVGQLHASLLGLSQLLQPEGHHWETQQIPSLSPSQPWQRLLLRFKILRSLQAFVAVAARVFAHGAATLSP
T1 sequence 2: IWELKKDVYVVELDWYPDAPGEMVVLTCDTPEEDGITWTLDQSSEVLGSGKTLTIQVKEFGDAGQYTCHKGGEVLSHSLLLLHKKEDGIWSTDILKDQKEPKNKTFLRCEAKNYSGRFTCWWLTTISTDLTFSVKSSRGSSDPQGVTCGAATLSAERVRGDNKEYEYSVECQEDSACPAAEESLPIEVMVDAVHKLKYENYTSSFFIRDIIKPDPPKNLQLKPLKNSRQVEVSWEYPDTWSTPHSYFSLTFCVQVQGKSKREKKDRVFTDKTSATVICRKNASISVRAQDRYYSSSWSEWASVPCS
Description: (§1) Maxisorp 96-well plates were coated overnight with 50 μl/well 0.3 μg/ml IL-23R-Fc then blocked with 4% milk, 1% BSA.

human TNFα = molecular target: T2, human TNFα (human, UniProt P01375 77-233); experiment: competition ELISA on plate-coated human TNFα; competitor 2 nM biotinylated adalimumab, detected with ExtrAvidin-HRP, A450
T2 construct: also called TNF-alpha
Description: ELISA plates were coated with 100 ng/mL human TNFα in 250 μg/mL bovine serum albumin (BSA) in phosphate buffered saline (1×PBS) and blocked with 1% BSA in 1× PBS. […] Otherwise 1% BSA was used as an assay diluent.

recombinant human IL-23 [2] = molecular target: T1, recombinant human IL-23; experiment: IL-23-IL-23R neutralisation ELISA (sheet title 'IL-23 IL23R ELISA'); construct blocks binding of IL-23 to IL-23R; A450
recombinant human IL-23 [3] = molecular target: T1, recombinant human IL-23; experiment: SPR (Biacore), recombinant human IL-23 captured by an anti-p40 mAb on the chip, ICVD flowed over; average KD
recombinant human IL-23 [4] = molecular target: T1, recombinant human IL-23; experiment: IL-23-IL-23R inhibition ELISA (Evaluation Method A), side by side with brazikumab
Description: as §1

THP-1 derived nhIL-23 = molecular target: T3, THP-1 derived nhIL-23 (human, UniProt Q9NPF7 20-189; P29460 23-328); experiment: cell-based or functional assay
T3 sequence (looked up) 1: T1 sequence 1
T3 sequence (looked up) 2: T1 sequence 2

recombinant human IL-23 [5] = molecular target: T1, recombinant human IL-23; experiment: IL-23-IL-23R neutralisation ELISA
Description: as §1
(§2) The Family L ICVD 12G1 underwent sequence modification to produce multiple variant ICVDs. These variant ICVDs were tested in the potency and protease stability assays detailed above.

rhesus monkey IL-12 = molecular target: T4, rhesus monkey IL-12 (rhesus monkey, UniProt P48091 23-219; P48095 23-328); experiment: binding or inhibition ELISA (which of the two is not said)
T4 sequence (looked up) 1: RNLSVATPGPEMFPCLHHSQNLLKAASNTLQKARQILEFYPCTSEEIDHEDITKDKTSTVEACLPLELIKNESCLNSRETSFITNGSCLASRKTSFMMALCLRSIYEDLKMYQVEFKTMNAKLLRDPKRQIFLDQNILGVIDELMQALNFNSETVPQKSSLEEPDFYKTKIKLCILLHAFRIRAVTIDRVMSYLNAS
T4 sequence (looked up) 2: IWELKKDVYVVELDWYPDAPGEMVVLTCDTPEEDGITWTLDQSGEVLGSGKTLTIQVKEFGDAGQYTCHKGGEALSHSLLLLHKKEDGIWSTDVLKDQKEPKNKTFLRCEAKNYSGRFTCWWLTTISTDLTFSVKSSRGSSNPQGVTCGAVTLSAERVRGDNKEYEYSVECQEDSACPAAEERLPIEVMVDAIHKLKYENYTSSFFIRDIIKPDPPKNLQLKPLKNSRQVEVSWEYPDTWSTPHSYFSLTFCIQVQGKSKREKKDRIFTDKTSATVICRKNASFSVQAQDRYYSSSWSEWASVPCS

Human IL-12 = molecular target: T5, Human IL-12 (human, UniProt P29459 23-219; P29460 23-328); experiment: as above
T5 sequence (looked up) 1: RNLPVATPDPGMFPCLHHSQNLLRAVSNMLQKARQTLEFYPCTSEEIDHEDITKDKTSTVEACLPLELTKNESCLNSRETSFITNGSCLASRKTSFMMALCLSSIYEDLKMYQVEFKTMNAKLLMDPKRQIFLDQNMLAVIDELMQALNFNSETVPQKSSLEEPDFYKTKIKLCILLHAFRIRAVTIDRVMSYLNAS
T5 sequence (looked up) 2: T1 sequence 2

IL-6 = IL-6 (Homo sapiens (Human), UniProt P05231 30-212); experiment: as above
recombinant human IL-23 [6] = molecular target: T1, recombinant human IL-23; experiment: IL-23-IL-23R neutralisation ELISA; one experiment, left out of the average by the filing as an outlier
recombinant human IL-23 [7] = molecular target: T1, recombinant human IL-23; experiment: IL-23-IL-23R neutralisation ELISA; average of 5 independent experiments
Description: as §1, §2

T2 sequence (P01375 77-233 limits assumed): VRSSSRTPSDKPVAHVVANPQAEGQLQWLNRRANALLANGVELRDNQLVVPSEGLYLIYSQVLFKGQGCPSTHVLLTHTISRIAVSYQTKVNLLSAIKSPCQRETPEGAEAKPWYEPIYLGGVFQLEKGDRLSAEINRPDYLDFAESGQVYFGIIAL
Sequence of IL-6 (P05231 30-212 limits assumed): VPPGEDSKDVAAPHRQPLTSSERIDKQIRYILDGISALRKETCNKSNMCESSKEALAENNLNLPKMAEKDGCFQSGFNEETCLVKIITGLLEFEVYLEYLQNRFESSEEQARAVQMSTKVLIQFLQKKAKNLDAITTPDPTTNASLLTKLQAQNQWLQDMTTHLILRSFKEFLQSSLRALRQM

B1: 10G10 (VHH)
VHH: EVQLVESGGGLVQAGTSLRLSCAASGRTFSNYIMGWFRQAPGKEREFVAIITANGVATDYRDSVKGRFTISRDNARNTGYLEMNSLKPEDTAVYFCALRTRSGSLFDPGTFDYWGQGTQVTVSS
notes: Purified primary clone made in E. coli; not shown: C-terminal FLAG and 6xHis tags from vector pMEK222
- EC50 (recombinant human IL-23 [1]): 1.47 nM

B2: 12G1 (VHH)
VHH: EVQLVESGGGLVQPGGSLRLSCAASVSIWSFKVMGWYRQVPGKQRELVATITTGGSPDYADSVKGRFTMSRDYDKRTVFLEMDSVKPEDAAVYYCNGRLWAHLTSSGHDVWGQGTRVTVSS
notes: Purified primary clone made in E. coli; also called Family L ICVD 12G1; not shown: C-terminal FLAG and 6xHis tags from vector pMEK222
- EC50 (recombinant human IL-23 [1]): 0.387 nM

B3: 1E2 (VHH)
VHH: B2 VHH with R116Q
notes: Purified primary clone made in E. coli; also called Family L ICVD 1E2; not shown: C-terminal FLAG and 6xHis tags from vector pMEK222
- EC50 (recombinant human IL-23 [1]): 0.546 nM

B6: 10E2 (VHH)
VHH: EVQLVESGGGLAQAGGSLRLSCAPSGRAFSGSAMGWFRQVPGKEREFVGVIIWTGGYTYYADSVKGRFTISRDSAKNTVYLQMDSLKPEDTAVYYCAARTPNSSWFPTTLYEYDYWGQGTQVTVSS
notes: as for B1
- EC50 (recombinant human IL-23 [1]): 1.45 nM

B7: ID-L253T (VHH)
VHH: DVQLVESGGGQVQPGGSLSLSCESSVSIWSFKVMGWFRQVPGKQRELVATITTGGSPDYSDSVKGRFTISRDYDKRTLYLQMNSLKPEDTAVYYCAGRLWAHITSSGHDVWGQGTQVTVSS
notes: Optimised variant of 12G1
- Kd (recombinant human IL-23 [3]): 0.032 nM
- EC50 (recombinant human IL-23 [4]): 0.202 nM
- Mouse splenocyte (EC50; mIL-17 secretion, Evaluation Method C) (THP-1 derived nhIL-23): 13.5 nM
- EC50 (recombinant human IL-23 [5]): 0.23 nM
- binding result (rhesus monkey IL-12): no binding
- binding result (Human IL-12): no binding
- binding result (IL-6): no binding

B9: ID-L241T (VHH)
VHH: B7 VHH with D1E, S19R, D58H, V92R
notes: Relative to ID-L253T: D1E, S19R, D58H, V92R
- Mouse splenocyte (EC50; mIL-17 secretion, Evaluation Method C) (THP-1 derived nhIL-23): 3.51 nM
- EC50 (recombinant human IL-23 [5]): 0.31 nM

B10: ID-L239T (VHH)
VHH: B7 VHH with D1E, S19R, R45L, V92R
notes: Relative to ID-L253T: D1E, S19R, R45L, V92R
- Mouse splenocyte (EC50; mIL-17 secretion, Evaluation Method C) (THP-1 derived nhIL-23): 3.84 nM
- EC50 (recombinant human IL-23 [5]): 0.26 nM

B14: ID-L243T (VHH)
VHH: B7 VHH with D1E, S19R, P87S, V92R
notes: Relative to ID-L253T: D1E, S19R, P87S, V92R
- Mouse splenocyte (EC50; mIL-17 secretion, Evaluation Method C) (THP-1 derived nhIL-23): 5 nM
- EC50 (recombinant human IL-23 [5]): 0.27 nM

B17: ID-L210T (VHH)
VHH: B7 VHH with D1E, S19R, V92R
notes: Relative to ID-L253T: D1E, S19R, V92R
- EC50 (recombinant human IL-23 [6]): 1.1 nM
- Mouse splenocyte (EC50; mIL-17 secretion, Evaluation Method C) (THP-1 derived nhIL-23): 5.63 nM
- EC50 (recombinant human IL-23 [7]): 0.32 nM

B19: ID-L242T (VHH)
VHH: B7 VHH with D1E, S19R, S60R, V92R
notes: Relative to ID-L253T: D1E, S19R, S60R, V92R
- Mouse splenocyte (EC50; mIL-17 secretion, Evaluation Method C) (THP-1 derived nhIL-23): 3.01 nM
- EC50 (recombinant human IL-23 [5]): 0.22 nM

B21: ID-L237T (VHH)
VHH: B7 VHH with D1E, V92R
notes: Relative to ID-L253T: D1E, V92R
- Mouse splenocyte (EC50; mIL-17 secretion, Evaluation Method C) (THP-1 derived nhIL-23): 6.35 nM
- EC50 (recombinant human IL-23 [5]): 0.24 nM

B22: ID-L238T (VHH)
VHH: B7 VHH with D1E, S19R, V40A, V92R
notes: Relative to ID-L253T: D1E, S19R, V40A, V92R
- Mouse splenocyte (EC50; mIL-17 secretion, Evaluation Method C) (THP-1 derived nhIL-23): 5.54 nM
- EC50 (recombinant human IL-23 [5]): 0.2 nM

More lines, now with the values ahead:

- binding result (human TNFα): binds
- binding result (recombinant human IL-23 [2]): binds
B4: FA1K (bispecific antibody)
chain: DVQLVESGGGLVQPGGSLKLSCAASGFDFSSHWMYWVRQAPGKELEWLSEINTNGLITHYGDSVKGRFTVSRNNAANKMYLELTRLEPEDTALYYCARNQHGLNKGQGTQVTVSSGGGGSGGGGSKGGGGSGGGGSEVQLVESGGGQVQPGGSLSLSCESSVSIWSFKVMGWFRQVPGKQRELVATITTGGSPDYSDSVKGRFTISRDYDKRTLYLQMNSLKPEDTAVYYCAGRLWAHITSSGHDVWGQGTQVTVSS
notes: Before trypsin treatment; also called heterobihead anti-IL-23/anti-TNF-alpha construct; ID-38F-(G4S)2-K-(G4S)2-ID-L253T

- binding result (human TNFα): binds
B5: ID-38F (VHH)
VHH: DVQLVESGGGLVQPGGSLKLSCAASGFDFSSHWMYWVRQAPGKELEWLSEINTNGLITHYGDSVKGRFTVSRNNAANKMYLELTRLEPEDTALYYCARNQHGLNKGQGTQVTVSS
notes: also called anti-TNF-alpha ICVD ID-38F

- EC50 (recombinant human IL-23 [5]): 2.15 nM
B8: ID-L246T (VHH)
VHH: B7 VHH with D1E, V40A, I69L, L78V
notes: Relative to ID-L253T: D1E, V40A, I69L, L78V

- EC50 (recombinant human IL-23 [5]): 6.95 nM
B11: ID-L250T (VHH)
VHH: B7 VHH with D1E, V40A, R45L, L47F, D58H
notes: Relative to ID-L253T: D1E, V40A, R45L, L47F, D58H

- EC50 (recombinant human IL-23 [5]): 0.25 nM
B12: ID-L245T (VHH)
VHH: B7 VHH with D1E
notes: Relative to ID-L253T: D1E

- Mouse splenocyte (EC50; mIL-17 secretion, Evaluation Method C) (THP-1 derived nhIL-23): 5.74 nM
- EC50 (recombinant human IL-23 [5]): 1.99 nM
B13: ID-L251T (VHH)
VHH: B7 VHH with D1E, S19R, Q44E, L47F, D58H
notes: Relative to ID-L253T: D1E, S19R, Q44E, L47F, D58H

- Mouse splenocyte (EC50; mIL-17 secretion, Evaluation Method C) (THP-1 derived nhIL-23): 5.2 nM
- EC50 (recombinant human IL-23 [5]): 0.26 nM
B15: ID-L252T (VHH)
VHH: B7 VHH with D1E, V40A, Q44E, R45L, I69L, L78V
notes: Relative to ID-L253T: D1E, V40A, Q44E, R45L, I69L, L78V

- Mouse splenocyte (EC50; mIL-17 secretion, Evaluation Method C) (THP-1 derived nhIL-23): 6.62 nM
- EC50 (recombinant human IL-23 [5]): 0.24 nM
B16: ID-L244T (VHH)
VHH: B7 VHH with D1E, S19R
notes: Relative to ID-L253T: D1E, S19R

- Mouse splenocyte (EC50; mIL-17 secretion, Evaluation Method C) (THP-1 derived nhIL-23): 4.47 nM
- EC50 (recombinant human IL-23 [5]): 0.17 nM
B18: ID-L248T (VHH)
VHH: B7 VHH with D1E, K43H, R45L
notes: Relative to ID-L253T: D1E, K43H, R45L

- Mouse splenocyte (EC50; mIL-17 secretion, Evaluation Method C) (THP-1 derived nhIL-23): 4.27 nM
- EC50 (recombinant human IL-23 [5]): 0.74 nM
B20: ID-L249T (VHH)
VHH: B7 VHH with D1E, V40A, R45L, D58H
notes: Relative to ID-L253T: D1E, V40A, R45L, D58H

- Mouse splenocyte (EC50; mIL-17 secretion, Evaluation Method C) (THP-1 derived nhIL-23): 4.52 nM
- EC50 (recombinant human IL-23 [5]): 0.31 nM
B23: ID-L247T (VHH)
VHH: B7 VHH with D1E, V40A, R45L
notes: Relative to ID-L253T: D1E, V40A, R45L
